# Assay: soluble on expression in E. coli; label from the status in PepcDB or PDB records
row,Sequence,soluble on expression in E. coli
1,MSMERSLEAWEEVQRHGQDLADRLAQGFTGLIHINPPSFPWPPNHHHLHKAKLFDLEFPTQHFSVIKDSRFSINQPINGVTAILDIGNKIGQAGVDFGAGLNVMVQQFFRRLPIPFLHEDNNKLVVSVDGDKSTRSHRAYVITKGDLGMATERLRDSGFSKTDDTASVTMSEEEVADSYLRAAGLLGRSKGTIDTSSSYDSRTNGMEHSLAARGDLWRVEASHSSSTASDGNSSLFLLQLGPLLFLRDSTLLLPLHLSKQHLLWYGYDRKSFMDLQFPNGQLTYVSGEGLTTSAFVPFCGGLLQAQGQYPGDMRFSYSCKNKCGTRITPMVHWPDKSFGLDLSQPLAWRRSGLLMKPTIQVSVCPTFGGSNPGIKAEVIHSLSDDLNLICGYALNAHPSAFASVAFGRSKWNGNIGRTGIVVRADTPLASIGQPSFSIQLNNAFEF,soluble
2,MKLIIHQKWYLQQVKDTFTNLQAPRLHWALRNALNTAAKQVERFTEKQVADLSSAQIKRIRRGVYIKEKATARFLETDLIGSGTPLPLKFFKAKETKHGVTYTLFGKKQILTHGFIKGGSFPKRVDLKMGGNVFQRDDGDQFPIAKQEGPSIAKVMSKPEIASAIAQYANERLTKNIQRQLARQEYAANKKG,not soluble
3,VNKSQLIDKIAAGADISKAAAGRALDAIIASVTESLKEGDDVALVGFGTFAVKERAARTGRNPQTGKEITIAAAKVPSFRAGKALKDAVN,soluble
4,MGSDKIHHHHHHMIYKVISKDEFRNFVDALVRANTSYGPRQVDTDRNGEPIYQFMPVSSASEIAFDYTVTTSSAKHFLMPFREELSKFSFRDGDWDQEVKYDAPPIVLVGLRPCDINAINILDEVMLKGPYPSPYYLARRKNTFIIGMDHLPLPDCFCRSMNRHTTDHGFNLFASDIGESYFLSINSSKAFNFLKEFETTEPTEEDDCKLIERRKLIKQSFKTNVEVTGLPVFLDLEFDSPIWKKWGDKCLNCGSCAMVCPTCYCYNVEEHFETNLESSSRQRRLYSCNLIDFAEVTGGHNFRPKNGDRLKYRYYHHYRGFAVNDNQQICVGCNRCGRACLAGINPKDVINDLRLEKESCVTCVSPSPAKT,not soluble
5,MSYPSLFAPLDLGFTTLRNRVLMGSMHTGLEEHPDGAERLAAFYAERARHGVALIVTGGIAPVPSGVVMTGGAMLNDASQLTPHRVVTDAVHAQGGKIALQILHTGRYSYQPHLVAPSAIQAPINRFMPHELTHDEILQLIDDFAHCAQLAREAGYDGVEVMGSEGYLINEFLTRRTNHRDDEWGGDYASRMRFAVEVVRAVRQRVGNDFIIIYRLSMLDLVENGGTFDETVQLAQAIEAAGASLINTGIGWHEARIPTIATPVPRGAFSWVTRKLKGHVSVPLIATNRINDPQVAETILTRGDADMVSMARPFLADAEFLTKAQSGRADEINTCIGCNQACLDRIFIGKVTSCLVNPRACHETHMPITPAIRKKNLAVVGAGPAGLAFAINAASRGHHVTLFDAQSEIGGQFTIARQIPGKEEFYETLRYYRRMIDVTGVTLKLNQRVNAEDLQPFDEAILACGIVPRRPPIDGIDHPKALTYLEVLRDKAPVGKRVAIIGCGGIGFDTAMYLSQHGESTSQNIAEFCTEWGIDTSLQQAGGLRPEGPRLARSPRQIVMLQRKTSKPGEGLGKTTGWIHRATLLARGVKMIPAVSYQKIDDDGLHLLIGGEPQLLEVDHVVICAGQEPRRELADPLRAAGKTVHLIGGCDVAMELDARRAIAQGTRLALEI,not soluble
6,MQYGAIVVTFNRKQLLIESITALLNQTVPPAKIIIIDNHSTDGTKAELQTADILANPSVDYRYLTKNIGGAGGFARGMQIAAADPNLDWASMSDDDAIFEPDYFEKLIAYQQDHPNRQILTGSVYIEDGRLQADQRNRFTNWSTFQAQAVPEREYRGNFEFDQYTFCGVFMSVAVIKQVGVADAGYFIWWDDCEYAVRTAKLSRPVNVSAAKLIHKTALPSLDFKSKFVPDWRLYYGQRNRLITIKRWRANSLVSLGWLLGFYARLAIQLCGPFYRGYRKMVIRVYLEALRDASREREGLNPNFMPGQKFLEHHHHHH,soluble
7,MSDVPHLRFPEFSGEWEEHTLSEYLEFKNGLNPDAKRIGSGLPFISVMDILSEGVINYDNIRGKVNATEKEIECFGVKDGDLLFQRSSETLEDVGRANVYMDNRTAIYGGFVIRGRKIGNYDPLFFKYLLATPLARKRTCRMGAGAQHFNIGQEGLSKISLYFPSIEEQRKIAEFLSLIDERIATQNKIIEDLKKLKSAISLNVLHSDKWEQFKIKDIAQIGRGRVISSIEIGQQKSPTYPVYSSQTSNDGIMGYLDDYMFEGEYISWTTDGANAGTVFYRNGKFNCTNVCGLLKLRKEFDTHFVSLVLAEATKKYVSINLANPKLMNNTMGNIQIRLPKLEEQKRISIVFRVLQRLWTVHNSLLTEYTKQEQYLLSQMFILEHHHHHH,not soluble
8,MERVYRTDLKLLRYFLAVAEELHFGRAAARLNMSQPPLSIHIKELENQLGTQLFIRHSRSVVLTHAGKILMEESRRLLVNANNVLARIEQIGRGEAGRIELGVVGTAMWGRMRPVMRRFLRENPNVDVLFREKMPAMQMALLERRELDAGIWRMATEPPTGFTSLRLHESAFLVAMPEEHHLSSFSTVPLEALRDEYFVTMPPVYTDWDFLQRVCQQVGFSPVVIREVNEPQTVLAMVSMGIGITLIADSYAQMNWPGVIFRPLKQRIPADLYIVYETQQVTPAMVKLLAALTQ,soluble
9,MLPPYNYMDNGTLKGISIDLLEAITEKMGKKVTREEIHLVSWTEGYQAALTRNNTVLFVTARTPEREQSFKWVGPIYSDKYVLFAKRDPGVTIDGPEDLKEYRIGVISDDVAAQQLLNIGVNQSQLEHHHHHH,not soluble
10,MARVAIVGTGPTGIYTFFNLIQTDPSHHITLFERGEKAGIGLPYSPEAASKSMLANIASIEIPPIEATYLDWLKGQPDAKLRAYGLDRAELDDRQFTPRLLLGEYFRDQLLSLLDRHRARTEVLETTEVTDVIARNDALFLRAAEREFGPFDRVILATGHVFPDADEATRSYFPSPWSGLIQAEVPPVSVGIMGTSLSSIDAAMAVANQHGRFRRHGEELTFEPATEGLHLTLMSWSGVLPEADFWCPIPYEPLQVMTDDAVAQCAAQADPLDRVFALLQEEIAQADPAYADRIGLATLTADTFGDAYFAAREAQDPFRWARRNLEEVEHNKAHQITVPWRYALLRMHEKVETLVPHLGDADRKRFDGGLKKVFVDNYAAVPSESIRRLLALRDAGLLSVLALGEDYELKREPDRTVIHAKGKTHVFPVFIDARGQKPMESRDMPFPSLRRALMGSKQDIPELDADFALVGVPDYDRHAHLAAIPYLMHDRPFVQGITASAEIGATIARGISQAVGDRAAQGGRRSSAPVVATGLEHHHHHH,soluble
11,MGSDKIHHHHHHMNAVQVLNFQQNSVRTVADNKGELWFLANDVCEILGYTNPRRTVDLHCKSRGVTKRYTPTTSGEQEMTYINEPNLYRLIIKSRKPAAEAFEEWVMETVLPAIRKTGGCQVGPKTTADDRTGLRQAVAALVGRKGIDYSSAYSMIHQRFNVESIEDLPAGKLPEAVAYVHALTLHTGLTGEVLDAPPKAEPKLPIDGNSLADIAAMVYYGTWMIESGKDISAPLKQLGCRQAVTMWTVWHETRPILKRSAAALEVLRGYADKDASDRIAACLEGIYGKATVR,not soluble
12,SKKTVEFVDYVNPLMGTESTFAFSHGNTYPAVAVPWGMNFWSPQTGENGSGWMYTYTDSLMRGFRQTHQPSPWINDYGTFSIMPLAGELKMSHKERLVPFSHQQEKATPYNYSVTFNNGLQTSLSATSRGAVFEVSFPEKEDQYVVVDAYNGGSSITIEPEKRLVKGATRYNNGGVPDNFANYFMMEFSHPVIEYGTYNGDTLLHHQTDVAADYTCAYLKFDVPAGEKLTIRTASSFISPEQAAINFNREVADADVQLISGKAREQWNNYLGRVEAEGGTDEQLRTFYSCLYRTLLFPREFYEFDSQGNPVYYSPYDGNVHDGYMYTDNGFWDTFRAVHPLFTLLYPEVSERVTQSIINAYNESGFMPEWASPGHRGCMIGNNSVSLLVDAWMKGIQTVDAEKALEAMIHQTQARHAEIASVGRDGFEYYDKLGYVPYPEVPEATAKTLEYAYADWCIARFAESLGKQDIADQYYQKAPNYRNLYYPEHGFMWTKDAKGNWRDRFDATEWGGPFTEGSSWHWTWSVFHDPEGLSELMGGHEPMIARLDSMFVAPNTYNYGTYGFVIHEIAEMVALNMGQYAHGNQPVQHAIYLYDYIGQPWKTQYHLRNVMDKLYNSGSKGYCGDEDNGQTSAWYVFSAMGFYPVCPGMPEYAIGSPLFKKVTLHLPEGKNFVVSAADNAADRPYIRKALLNGQEFTRNYLTHDELKQGGELNLSMDSVPNQQRGTQPADFPYSYSK,soluble
13,MAHHHHHHMEHVRHLLDVIMGRATLDPGVARVVSVFFNQKSSGFSPQELMQFLVTCAFHVKGMTPLEAARFCFFALRRDMEHAIARDDVIFMLEHSLIEHTIEMPEMELRRRVVDIFGDTTYVIFDDFVRYFIHNYAMWYAFGVPVTVSGERSGRGGDVAPQLNPTLTLLKADGEPNAKARAPTAATTVSTSGAAPVSASTSTTAATPAAAITTATTQKTVPHDESVWRTFIARVQHSNKAFSVTAHVNDTIFDVMVMVQNSTGIRAACQEWRAGNVALDPKCRLGSTELGLGGNEVAAPEVIIIARDEAVRLVMVYKEKGFRWEVRLPSSEKVLKLRALVQHKTMIPLTRCVLRAHGSCLMDRHPLAHYNLQDGDVVTITQE,not soluble
14,GLPARSSSISNTNRTGENPMITPIISSNLGLKHRVTLRKATLASLMQSLSGESSNRVMWNDRYDTLLIARDPREIKNAIEKSVTDFGGLENYKELTGGADPFALMTPVCGLSANNIFKLMTEKDVPIDPTSIEYLENTSFAEHVNTLDSHKNYVVIVNDGRLGHKFLIDLPALTQGPRTAYIIQSDLGGGALPAVRVEDWISRRGSDPVSLDELNQLLSKDFSKMPDDVQTRLLASILQIDKDPHKVDIKKLHLDGKLRFASHEYDFRQFQRNAQYVAGLG,soluble
15,METESWKLLESSIIYYEGNPIGTVAAQDPELAALNYDQCFLRDFVPSAFVFLMDGQTDIVRNFLIETLTLQSHEKEMDCFQPGAGLMPASFKVESDGSKEYLVADFGEKAIARVPPVDSCMWWILLLRAYEKATGDLTLAREPKFQAGIKLILDLCLAHRFSMYPTMLVPDGAFMIDRRMGVYEHPLEIQVLFYAALRAARELLLPDGDGEQYLNKVHGRLGALQYHIRNYYWVDLKRLREIYRYKGNEFGKEIANKFNIFSQSIPDWVIEWLPEKGGYLAGNLGPGRMDFRFFALGNLMAILAGLASEEESQRIMNLFAHRWEDLIGYMPVKICYPALQGLEWQIVTGCDPKNIPWSYHNGGNWPVLLWLFTAAALKTGKVELAHEAIAIAEGRLSNDKFPEYYDGNNGRLIGKEARIYQTWSIAGLLVAKQFLANPDHVEFISFPDTFIGPGCSLLEHHHHHH,soluble
16,MNDETPRCPYNSLYKPLNLIKSKPDGCFKHNGQCTYGKNLVESVDDGNSRTPYNSIYEPLSLNKPKPDGRSSNGKKPVDNEYVNLPVLSEEQKLADKLAAKLRKLEVKEPKSKKRGSKERKKKKSEPVESTYESLATIEGSTNYSGPVTTESLESNVKFHHASQTAYIGVYSSADAEAQVKNRGEFALYHLFEVGNGIDHLTATLPLMLVYYTTTKKHRHYPVRESGGKGMVQYSVDCGYPIVRKHYSLNQLVQYYKSFGSIQMKQEDTCSEEFSWWLE,not soluble

# From the DeepSol protein solubility set
